Reference: PMC8126837 (Proceedings of the National Academy of Sciences of the …, 2021)
Changes are numbered by the printed parent chain.

B1: WNb 70 (VHH)
VHH: QVQLQESGGGLVQPGGSLNISCASNGFTLDFYAIGWFRQAPGKEREGVSCISSSGGSSKYSDSVKGRFTISRDNAKNTVYLQMNSLQPEDTAVYYCAAQMGSSEYCPIFIPGEGMDYWGKGTQVTVSS
B2: WNb 4 (VHH)
VHH: B1 VHH with N19R, I20L, S24A, N25S, F31Y, S58T, K59N, S61A, E104R, I110T
B3: WNb 3 (VHH)
VHH: B1 VHH with N19R, I20L, S24A, N25S, F31Y, S58T, K59N, S61A, Q87K, E104R
B4: WNb 59 (VHH)
VHH: QVQLQESGGGLVQPGGSLRLSCAASGGTLDYYAIGWFRQAPGKEREGVSCIMSSGGPTYFAGSVKGRFTISRDNAKNTVYLQMNSLKPEDTAVYYCAADPHGFDCSPSGGMDYWGKGTQVTVSS
B5: WNb 61 (VHH)
VHH: QVQLQESGGGLVQPGGSLNISCASNGFTLDFYAIGWFRQAPGKEREGVSCISRSGSNINYAESLKGRATISRDNAKNTIYLQMSNLRTEDTAVYYCAATPSGVATAQGPCDLTRWYDNWGQGTQVTVSS
B6: WNb 69 (VHH)
VHH: QVQLQESGGGLVQPGGSLRLSCAASGFTLDYYGIGWFRQAPGKEREGVSCISASGTSTKYVNSVKGRFTISRDNAKNTVYLQMNSLKPEDTAVYYCAAISGSYYYTSLHPVEYDSWGQGTQVTVSS
B7: WNb 46 (VHH)
VHH: B6 VHH with L11Q, K43Q, C50S, A53T, K59N, V61A, S115Y
B8: WNb 49 (VHH)
VHH: B6 VHH with C50G, K59N, V61A, N62D, I70V, G101A
B9: WNb 30 (VHH)
VHH: QVQLQESGGGLVQPGGSLRLSCVASGITLDYYAIGWFRQAPGKEREGVSCLSSSDGSTYYADSVKGRFTMSRDNVKNTVYLQMNSLKPEDTAVYYCATNPLTVVDGTFHLTCLDEYDYGGQGTQVTVSS
B10: WNb 20 (VHH)
VHH: QVQLQESGGGLVQPGGSLRLSCAASGFTLEHYAIGWFRQAPGKEREGVSCISNSGGRTNYADSVKGRFTISRDNAKNTVYLQMNSLKPEDTAVYYCAADLGVVERLCPAHPGSYEYDYWGQGTQVTVSS
B11: WNb 32 (VHH)
VHH: QVQLQESGGGLVQAGGSLGLSCAASGRPLNSYSMAWFRQAPGKEREFVASIGRSDGLSKYNDFVKDRFTLSRGNAKTTLLLQMNNLKVEDTAVYYCSAALWDGWATDINEYDYRGQGTQVTVSS
B12: WNb 31 (VHH)
VHH: QVQLQESGGGLVQAGDSLRLSCTASGRALNTYTVAWWRQAPGNEREFVASIIWSSGAAWYADAVKGRFTISRDNAKNTVDLQMTSLKPEETAIYFCAVGQWEGRDTWYTSYDYWGQGTQVTVSS
B13: WNb 5 (VHH)
VHH: QVQLQESGGGLVQAGGSLRLSCAASGRTFSRYAIGWFRQAPGKEREGVSCISPSGGSTNYADSVKGRFTISRDNAKNTVYLQMNSLKPEDTAVYYCAASTPSYHYCSGYVSEYDYWGQGTQVTVSS
B14: WNb 33 (VHH)
VHH: QVQLQESGGGLVQPGGSLRLSCAASGFTFSSYLMGWARQVPGKGLEWVAGIYSDGSTYYADSVKGRFIISRDNAKNTVYLQMNSLKPEDTAVYYCAKDRMEGSTWPERDLGSWGQGTQVTVSS
B15: WNb 11 (VHH)
VHH: B14 VHH with P14A, G16D, F27G, L110F

target: SARS-CoV-2 receptor-binding domain (RBD), wild type (SARS-CoV-2, UniProt P0DTC2, DyLight 488 (NHS ester, about 1.9 dye/protein) in the FRET assay only)

Binder | binding result
B1 | binds
B2 | binds
B3 | binds
B4 | binds
B5 | binds
B6 | binds
B7 | binds
B8 | binds
B9 | binds
B10 | binds
B11 | binds
B12 | binds
B13 | binds
B14 | binds
B15 | binds
